Measurements taken from the supplement of paper PMC10567573.

B1: HSP90AB1 (parent)
chain: TLRQKAEADKNDKAVKDLVVLLFE
B2: CIB1 (parent)
chain: DLSRLVNCLTGEGEDTRLSASEMK

Variants of: B1
Experiment: protein stability index of a GFP-peptide fusion (GPS, HEK-293T) (PSI 1-6); higher = more stable
Conditions: c terminus: a fixed tail appended
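Also: lentivirally expressed fusions sorted by FACS into six bins by GFP to DsRed ratio, PSI derived from sequencing read proportions per bin multiplied by bin number.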

Protein stability index, by site and new letter:
T1: M 3.02 | F 2.42 | V 2.52 | L 2.3 | S 4.38 | P 3.57 | E 3.92 | Q 3.54 | N 2.57 | H 3.09 | A 3.35 | D 3.58 | G 3.53 | C 2.26 | K 2.49 | R 2.47

Variants of: B2
Experiment: as above
Conditions: c terminus: a fixed tail appended

Protein stability index of substitutions, site by site:
V6: L 3.68 | M 3.61 | I 3.25 | W 2.64 | N 4.04 | C 3.96 | E 2.91 | Q 2.64 | D 4.1 | S 2.6 | P 4.84 | G 2.36 | R 3.94 | T 3.08
L5: F 2.49 | Q 4.54 | G 5 | H 3.23 | Y 2.27 | T 3.61 | R 2.87 | D 4.39 | C 3.35 | A 3.99 | P 5.06 | V 4 | K 4.53
S19: F 4.13 | T 2.01 | G 3.56 | W 2.26 | Q 2.78 | N 4.35 | H 3.01 | Y 2.29 | A 3.2 | R 2.6 | E 3.61 | D 3.17 | P 3.61 | C 1.89 | M 2.57 | I 2.62
E12: T 1.85 | A 2.15 | L 1.88 | C 3.46 | V 3.34 | W 2.05 | I 2.38 | G 1.18 | H 2.92 | Q 2.43 | D 1.73 | R 2.4 | S 2.44 | Y 2.17 | P 3.04 | F 1.63 | M 3.22 | K 3.29
G11: E 3.98 | W 2.34 | S 3.55 | C 3.16 | M 2.84 | I 3 | K 3.49 | F 3.35 | Q 3.03 | T 2.6 | L 2.88 | R 2.9 | N 3.7 | Y 2.67 | H 3.81
R17: L 2.59 | S 2.84 | Y 2.81 | F 2.99 | D 4.12 | E 4.53 | I 2.97 | W 2.33 | Q 3.1 | K 2.82 | N 2.76 | M 3.08 | A 3.68 | V 2.65 | P 3.35
T16: K 3.87 | A 2.46 | G 3.35 | Y 2.49 | V 2.8 | P 4.07 | Q 2.9 | E 3.18 | F 2.07 | N 3.22 | S 2.48 | M 2.62 | L 3.71 | H 3.5 | D 3.58
N7: T 2.62 | W 2.2 | P 4.6 | M 2.09 | R 3.09 | I 2.59 | A 3.12 | G 2.74 | S 3.63 | E 4 | D 4.32 | L 3.85 | K 2.84
E22: T 3.61 | F 2.21 | I 2.83 | S 3.35 | H 2.49 | A 3.08 | L 2.29 | M 2.46 | R 2.88 | C 2.76 | G 2.81 | N 3.54 | Y 3.08 | P 4.12 | K 4.44
K24: S 2.89 | W 1.86 | C 3.03 | I 1.81 | V 2.04 | H 2.37 | F 2.57 | P 2.67 | N 2.99 | Y 2.23 | Q 3.31 | A 3.25 | M 2.45 | E 3.9
E14: T 3.41 | H 3.05 | P 2.17 | M 2.06 | Y 2.83 | N 3.06 | R 2.34 | A 2.37 | F 2.2 | Q 3.53 | L 2.27 | C 3.36 | D 1.66 | K 2.94 | I 2.6
L9: R 2.54 | F 3.35 | A 1.75 | E 3.09 | P 2.87 | T 3.02 | N 4.24 | Q 3.25 | Y 3.32 | M 4.05 | S 2.62 | V 4.17 | I 3.04 | D 3.23 | H 3.78
T10: L 2.44 | E 3.39 | D 3.27 | F 2.77 | C 4.11 | K 2.9 | G 2.92 | A 3.49 | H 3.94 | I 2.68 | Q 3.61 | R 2.15 | W 2.48 | P 2.44 | M 2.11 | Y 1.99 | V 3.38 | S 3.17
D15: Y 2.06 | H 3.49 | T 2.12 | A 3.61 | F 2.32 | G 3.83 | M 1.61 | R 2.67 | N 1.77 | E 3.52 | C 2.19 | K 3.1 | V 1.54 | P 2.62
L18: F 1.85 | P 3.79 | R 4.11 | E 2.48 | Y 3.12 | H 4.09 | D 4.07 | N 3.75 | S 3.06 | K 3.36 | W 2.78 | G 1.4 | V 3.63 | M 2.49 | Q 2.96 | A 3.34
A20: H 2.98 | D 2.92 | S 2.9 | Q 3.71 | V 2.17 | F 1.8 | W 3.38 | N 2.75 | K 1.61 | G 3.69 | Y 2.15 | M 2.19 | C 2.31 | T 1.89 | E 4.11 | P 3.15
G13: H 3.31 | E 3.07 | I 3.55 | P 3.03 | V 2.65 | K 3.45 | W 2.4 | L 2.53 | N 2.71 | T 3.16 | Q 2.54 | R 2.89 | M 2.76 | A 3.62 | C 2.94 | Y 3.02 | S 3.97
R4: N 2.39 | K 3.12 | I 2.48 | L 3.47 | V 2.01 | Y 2.85 | G 3.8 | M 2.98 | P 3.66 | Q 2.27 | T 4.46 | H 3.96 | W 3.45
M23: R 2.68 | I 3.03 | K 4.14 | L 3.23 | C 2.85 | Q 2.6 | D 2.32 | A 3.76 | W 2.81 | V 3.17 | H 2.71 | F 3.12 | N 3.46 | Y 2.7 | T 3.14
S21: H 3.01 | E 4.15 | G 1.68 | T 3.1 | M 2.98 | F 2.36 | C 2.63 | L 2.06 | Y 3.14 | R 1.9 | V 2.17 | K 4.3 | D 3.57 | A 2.1 | P 3.5
C8: M 3.52 | N 3.02 | I 2.4 | Y 2.34 | A 3.09 | H 2.81 | D 4.3 | Q 3.95 | V 3.27 | S 3.63 | P 4.28 | E 3.42 | K 1.43 | F 2.46 | L 2.21 | G 3.77
